Data on one substance can be found in PMC8767186.

The target of the experiment is Spc105-mCherry (S. cerevisiae) (UniProt P53148). The experiment in a line: co-IP; RFP-Trap beads (Chromotek) on cleared yeast lysates in buffer H 0.15 (25 mM HEPES pH 8.0, 150 mM KCl, 0.1% IGEPAL), overnight; blots with anti-GFP and anti-DsRed; band intensities by ImageJ, normalised to full length, input and Spc105 IP.
Sequence of UniProt P53148 (P53148 whole entry): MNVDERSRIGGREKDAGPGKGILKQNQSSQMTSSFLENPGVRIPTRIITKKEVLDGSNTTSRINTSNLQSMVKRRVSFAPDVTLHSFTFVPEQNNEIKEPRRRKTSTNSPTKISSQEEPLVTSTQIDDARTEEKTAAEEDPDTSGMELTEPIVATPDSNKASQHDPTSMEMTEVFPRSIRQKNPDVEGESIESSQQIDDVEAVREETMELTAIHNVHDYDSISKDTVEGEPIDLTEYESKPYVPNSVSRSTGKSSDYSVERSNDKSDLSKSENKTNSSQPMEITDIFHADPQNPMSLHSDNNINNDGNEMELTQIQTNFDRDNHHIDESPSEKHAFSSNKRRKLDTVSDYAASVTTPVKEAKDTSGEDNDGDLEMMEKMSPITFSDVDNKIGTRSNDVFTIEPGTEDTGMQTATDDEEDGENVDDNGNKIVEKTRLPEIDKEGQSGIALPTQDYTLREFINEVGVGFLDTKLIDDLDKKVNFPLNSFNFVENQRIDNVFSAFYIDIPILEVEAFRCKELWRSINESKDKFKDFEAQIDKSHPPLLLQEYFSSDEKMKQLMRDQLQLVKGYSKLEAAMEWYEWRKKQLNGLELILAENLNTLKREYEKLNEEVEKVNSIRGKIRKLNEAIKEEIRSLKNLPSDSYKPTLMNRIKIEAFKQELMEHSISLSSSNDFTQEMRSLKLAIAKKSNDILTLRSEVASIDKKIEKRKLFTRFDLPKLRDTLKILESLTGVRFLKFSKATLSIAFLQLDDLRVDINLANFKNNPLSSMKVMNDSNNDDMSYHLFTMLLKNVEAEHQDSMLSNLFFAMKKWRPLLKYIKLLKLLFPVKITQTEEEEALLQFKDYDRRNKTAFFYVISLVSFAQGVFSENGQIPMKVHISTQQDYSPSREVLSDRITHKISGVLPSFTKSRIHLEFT

Substance “GFP-kre28^Δ127–182 (from UniProt Q04431 1-385) (natural protein)” registered a reduction of co-precipitation against full-length Kre28 of 40%.
